Experiments:
[1] = target: CrAPE1_(C128S), recombinant soluble domain of Chlamydomonas APE1 with C128S (Chlamydomonas reinhardtii); assay: SEC-MALS
[2] = target: CrAPE1_(C247S), recombinant soluble domain of Chlamydomonas APE1 with C247S (Chlamydomonas reinhardtii); assay: SEC-MALS

Row | Substance | stoichiometry N [1] | stoichiometry N [2]
1 | CrAPE1_(C128S), recombinant soluble domain of Chlamydomonas APE1 with C128S (domain or fragment) | 2 | 
2 | CrAPE1_(C247S), recombinant soluble domain of Chlamydomonas APE1 with C247S (domain or fragment) |  | 2

Source: paper PMC13254101
